According to patent publication US12384831 (SHINSHU UNIVERSITY, dated 2025):

Molecular target: recombinant human LOX-1 (61-273aa) (human, UniProt P78380 61-273)
Test: sandwich ELISA, LOX-1 immobilized, detection by anti-ApoA I antibody
Experimental: The recombinant human LOX-1 (61-273aa) or protein Dectin-1 belonging to the same family with LOX-1 for the contrast reference was immobilized on the ELISA plate at 4° C. overnight. After washing with PBS, it was blocked by HEPES buffer including 3% BSA (10 mM HEPES, 150 mM NaCl, pH7.4). After washing PBS three times, oxidized HDL, HDL, oxidized LDL and LDL were respectively added thereto, and they were incubated. After washing with PBS, chicken anti-ApoA I monoclonal antibody (chicken monoclonal […]) or HRP-labeled anti-ApoA I polyclonal antibody (sheep polyclonal […]) was added thereto. When chicken anti-ApoA I monoclonal antibody was used, chicken anti-ApoA I monoclonal antibody was added thereto and reacted for 1 hour at room temperature and then it was washed with PBS and secondary antibody: HRP-labeled Donkey anti-chicken IgY was added and incubated for 1 hour at room temperature.
After the antibody response, it was washed with PBS for 5 times. And then, TMB solution was added onto the plate and made it react them at room temperature. After stopping the reaction by 2M sulfuric acid, the absorbency at 450 nm was determined by using SpectraMax 340PC384 (Molecular Devices) to detect the oxidized HDL bound. […]

binding result: binds
B1: fusion protein of Fv-type anti-LOX-1 antibody (#10-1) and human ApoA I (31-267aa) (other)
chain: EVKLLESGGGLVQPGGSLKLSCAVSGFDFSRYWMSWVRQAPGKGLEWIGEINPDSSTINFTPSLKDKFIVSRDNAKNTLYLQMSKVRSEDTALYYCARNDVLLGAMDYWGQGTSVTVSSGGGGSGGGGSGGGGSDVLMTQTPLSLPVSLGDQASISCRSSQTIVHSNGKTYLEWYLQKPGQSPKLLIYKVSNRFSGVPDRFSGSGSGTDFTLKISRVEAEDLGVYYCFQGSHVPLTFGAGTKLELKGGGGSGGGGSGGGGSPWDRVKDLATVYVDVLKDSGRDYVSQFEGSALGKQLNLKLLDNWDSVTSTFSKLREQLGPVTQEFWDNLEKETEGLRQEMSKDLEEVKAKVQPYLDDFQKKWQEEMELYRQKVEPLRAELQEGARQKLHELQEKLSPLGEEMRDRARAHVDALRTHLAPYSDELRQRLAARLEALKENGGARLAEYHAKATEHLSTLSEKAKPALEDLRQGLLPVLESFKVSFLSALEEYTKKLNTQ
notes: Expressed from the pEF6-V5-His vector in Expi293 cells, secreted and His-purified; also called chimeric protein; artificial recombinant protein
